B1: murine signal regulatory protein α (SIRPα) on macrophages (receptor, mouse, UniProt P97797 32-513, looked up)
chain: KELKVTQPEKSVSVAAGDSTVLNCTLTSLLPVGPIRWYRGVGPSRLLIYSFAGEYVPRIRNVSDTTKRNNMDFSIRISNVTPADAGIYYCVKFQKGSSEPDTEIQSGGGTEVYVLAKPSPPEVSGPADRGIPDQKVNFTCKSHGFSPRNITLKWFKDGQELHPLETTVNPSGKNVSYNISSTVRVVLNSMDVNSKVICEVAHITLDRSPLRGIANLSNFIRVSPTVKVTQQSPTSMNQVNLTCRAERFYPEDLQLIWLENGNVSRNDTPKNLTKNTDGTYNYTSLFLVNSSAHREDVVFTCQVKHDQQPAITRNHTVLGFAHSSDQGSMQTFPDNNATHNWNVFIGVGVACALLVVLLMAALYLLRIKQKKAKGSTSSTRLHEPEKNAREITQVQSLIQDTNDINDITYADLNLPKEKKPAPRAPEPNNHTEYASIETGKVPRPEDTLTYADLDMVHLSRAQPAPKPEPSFSEYASVQVQRK
notes: whole, on cells; Endogenous protein of WT mouse macrophages; In the co-immunoprecipitations it is tyrosine-phosphorylated in its cytoplasmic ITIMs (SIRPα pY); also called murine SIRPα; surface signal regulatory protein α

Legend:
[1] = target: T1, SHP-1 (SH2-containing tyrosine phosphatase) of mouse macrophages (mouse, UniProt P29351 1-595, limits assumed); assay: SIRPα immunoprecipitation from LPS- or IL-17-treated WT PEM lysates, WB for SHP-1
T1 construct: Detected by Western blot in SIRPα immunoprecipitates
T1 sequence (P29351 whole entry): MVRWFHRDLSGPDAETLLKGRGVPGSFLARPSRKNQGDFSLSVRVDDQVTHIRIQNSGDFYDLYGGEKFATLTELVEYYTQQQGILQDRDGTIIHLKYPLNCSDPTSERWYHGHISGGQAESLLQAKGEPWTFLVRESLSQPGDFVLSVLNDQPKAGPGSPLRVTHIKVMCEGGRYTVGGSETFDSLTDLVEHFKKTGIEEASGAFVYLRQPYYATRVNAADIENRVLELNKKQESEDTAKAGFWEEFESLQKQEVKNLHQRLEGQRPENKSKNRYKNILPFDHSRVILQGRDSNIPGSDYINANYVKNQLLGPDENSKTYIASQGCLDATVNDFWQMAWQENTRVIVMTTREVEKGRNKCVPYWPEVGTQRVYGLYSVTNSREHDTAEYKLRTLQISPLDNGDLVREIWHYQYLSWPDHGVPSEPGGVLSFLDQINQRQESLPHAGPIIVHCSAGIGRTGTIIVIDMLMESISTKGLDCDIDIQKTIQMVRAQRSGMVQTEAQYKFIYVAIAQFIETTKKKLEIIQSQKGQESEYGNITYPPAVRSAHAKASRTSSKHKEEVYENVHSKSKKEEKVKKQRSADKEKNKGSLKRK
Experimental: FIGS. 4A-4E include data related to our experiments on macrophage phagocytic plasticity. FIG. 4A is a panel of illustrative line graphs showing that IL-10 inhibits macrophage phagocytosis toward “self.” PEMs were treated with LPS and activating cytokines along with various concentrations of IL-10 before testing their ability to phagocytose RBCs. FIG. 4B illustrates the phagocytic plasticity of WT red pulp macrophages. […] Treatments of cultured macrophages with LPS and IL-17 re-elicited their phagocytosis toward RBCs. […] Error bars are ±SEM. ***P<0.001 vs. freshly isolated splenic macrophages. FIG. 4D includes microscopic images of RBC phagocytosis by LPS- and IL-17-treated splenic macrophages. […] WT PEMs treated with LPS or IL-17 were further treated with Cd47⁺ RBCs or Cd47-AP (10 min, 37° C.) followed by cell lysis, SIRPα immunoprecipitation, and WB detection of SIRPα phosphorylation (SIRPα^pY) and SHP-1 association. Data presented in each panel represent at least three independent experiments with n≥4, if applicable.

[2] = target: B1; assay: note on the reagent used to ligate SIRPα on WT macrophages (FIG. 10)

Binder	binding result [1]	binding result [2]
B1	binds	–
mCD47-AP, soluble murine CD47 extracellular domain fusion protein (other, mouse, UniProt Q61735 19-140, looked up, not shown: large carriers, extracellular domain) QLLFSNVNSIEFTSCNETVVIPCIVRNVEAQSTEEMFVKWKLNKSYIFIYDGNKNSTTTDQNFTSAKISVSDLINGIASLKMDKRDAMVGNYTCEVTELSREGKTVIELKNRTVSWFSPNEK	–	binds

Reference: patent US20190134089A1 (GEORGIA STATE UNIVERSITY RESEARCH FOUNDATION, published 2019)
